The values below come from US20250382363A1 (NUMAB THERAPEUTICS, published 2025).

Positions count from the first letter of the chain named. Names and notes keep the numbering of the source.

The labels stand for the following.
B1: PRO3323 (scFv 54-21-H03-sc01_(L12A, T101Q, L144A, T146Q)) (scFv)
scFv: DIQMTQSPSSLSASVGDRVTITCQASESIYSSLAWYQQKPGKAPKLLIYLASTLASGVPSRFSGSGSGTDFTLTISSLQPEDFATYYCQSTDYTTSTHRNSFGTGTKVTVLGGGGGSGGGGSGGGGSGGGGSEVQLVESGGGAVQPGGSLRLSCAASGFSFSTTYYMCWVRQAPGKGLEWIGCTNTASSVRTYYATWAKGRFTISRDNSKNTVYLQMNSLRAEDQAVYYCARDMGFADYALNLWGQGTAVQVSS
notes: PRO1922 variant; VH substitutions, AHo numbering; also called PRO1922 L12A-T101Q-L144A-T146Q
B2: PRO3349 (scFv 54-21-H03-sc01_(T101R, T146E)) (scFv)
scFv: B1 scFv with A143L, Q225R, A249L, Q251E
notes: PRO1922 variant; VH substitutions, AHo numbering; also called PRO1922 T101R-T146E
B3: PRO3346 (scFv 54-21-H03-sc01_(T101S T146K)) (scFv)
scFv: B1 scFv with A143L, Q225S, A249L, Q251K
notes: PRO1922 variant; VH substitutions, AHo numbering; also called PRO1922 T101S-T146K
B4: PRO3347 (scFv 54-21-H03-sc01_(T101S, T146S)) (scFv)
scFv: B1 scFv with A143L, Q225S, A249L, Q251S
notes: PRO1922 variant; VH substitutions, AHo numbering; also called PRO1922 T101S-T146S
B5: PRO3326 (scFv 54-21-H03-sc01_(T101Q, T146Q)) (scFv)
scFv: B1 scFv with A143L, A249L
notes: PRO1922 variant; VH substitutions, AHo numbering; also called PRO1922 T101Q-T146Q
B6: PRO3325 (scFv 54-21-H03-sc01_(T101S, T146R)) (scFv)
scFv: B1 scFv with A143L, Q225S, A249L, Q251R
notes: PRO1922 variant; VH substitutions, AHo numbering; also called PRO1922 T101S-T146R
B7: PRO3348 (scFv 54-21-H03-sc01_(T101K, T146D)) (scFv)
scFv: B1 scFv with A143L, Q225K, A249L, Q251D
notes: PRO1922 variant; VH substitutions, AHo numbering; also called PRO1922 T101K-T146D
B8: PRO3324 (scFv 54-21-H03-sc01_(T101R, T146Q)) (scFv)
scFv: B1 scFv with A143L, Q225R, A249L
notes: PRO1922 variant; VH substitutions, AHo numbering; also called PRO1922 T101R-T146Q
B9: PRO3329 (scFv 54-21-H03-sc01_(T101Q)) (scFv)
scFv: B1 scFv with A143L, A249L, Q251T
notes: PRO1922 variant; VH substitution, AHo numbering; also called PRO1922 T101Q
B10: PRO3345 (scFv 54-21-H03-sc01_(T101N, T146Q)) (scFv)
scFv: B1 scFv with A143L, Q225N, A249L
notes: PRO1922 variant; VH substitutions, AHo numbering; also called PRO1922 T101N-T146Q
B11: PRO3344 (scFv 54-21-H03-sc01_(T101K, T146Q)) (scFv)
scFv: B1 scFv with A143L, Q225K, A249L
notes: PRO1922 variant; VH substitutions, AHo numbering; also called PRO1922 T101K-T146Q

T1 sequence (Q13421 other isoform, or with tags, fused parts or gaps limits assumed): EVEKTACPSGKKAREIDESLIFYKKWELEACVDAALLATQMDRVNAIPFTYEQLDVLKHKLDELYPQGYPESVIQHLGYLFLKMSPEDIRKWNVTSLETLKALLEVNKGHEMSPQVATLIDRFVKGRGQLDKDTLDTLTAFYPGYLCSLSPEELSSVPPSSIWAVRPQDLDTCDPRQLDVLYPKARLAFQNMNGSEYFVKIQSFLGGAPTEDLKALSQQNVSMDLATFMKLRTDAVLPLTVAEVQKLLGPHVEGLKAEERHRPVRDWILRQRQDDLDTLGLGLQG

The first test addresses T1, human a-Mesothelin (Acro Biosystems; MSN_H5223) (human, UniProt Q13421 296-580, limits assumed).
T1 construct: Bought protein immobilised on the SPR chip; Printed as 'a-Mesothelin' but used as the antigen for the anti-MSLN scFvs; also called Human MSLN; MSLN
The test is described as follows: SPR, mesothelin immobilised, scFv analyte, 1:1 fit. The procedure: The mutation variants were then injected at concentrations of 10 nM, 2 nM and 0.4 nM over the ligand-immobilized and reference spots. The wild type variants were used as a control, while an empty spot was used as reference.
After each cycle with analyte, the surface was regenerated with a 3M MgCl₂ solution, thereby allowing the next analyte cycle to have only free ligand available. Binding affinity KD was globally calculated by the Bruker SPR software based on the binding association (kₒₙ) and dissociation (Koff) rate, by fitting a 1:1 Langmuir model to the curves obtained by the cycles with the three different concentrations of the analyte.
A general note: In SPR one partner is held on a chip, and binding of the other changes the refractive index at the surface.
The term Kd denotes the free concentration of one partner at which half of the binding sites on the other are occupied at equilibrium, for simple one-to-one binding. Consider B1, for which the Kd stood at 1.7 nM and the n-fold to wt was 0.9 fold.
For B2 the same measures were 1.9 nM and 1.1 fold.
For B3 the same measures were 1.5 nM and 0.8 fold.
With B4, the Kd amounted to 1.7 nM and the n-fold to wt stood at 0.9 fold.
Take B5: the Kd was 1.8 nM and the n-fold to wt is 1 fold.
For B6 the same measures were 1.8 nM and 1 fold.
B7: the Kd was found to be 2.5 nM and the n-fold to wt is 1.4 fold.
For B8 the same measures were 1.9 nM and 1.1 fold.
Take B9: the Kd was 1.6 nM and the n-fold to wt is 0.9 fold.
For B10 the same measures were 1.5 nM and 0.8 fold.
On the same counts, the results for B11 are 1.6 nM and 0.9 fold.

For another test, the target named is pre-existing anti-drug antibodies (ADA) present in human sera. Briefly: pre-existing ADA ELISA, scFv coated, human sera unspiked vs spiked. On the technique in general: ELISA stands for enzyme-linked immunosorbent assay.
For B1, the Mean No of serum samples >30% inhibition (30% CCP) with SCP (serum samples) was determined as 0 and the No of serum samples >30% inhibition (30% CCP) without SCP (serum samples) was found to be 0.
The molecule B2 displayed a Mean No of serum samples >30% inhibition (30% CCP) with SCP (serum samples) of 0 and a No of serum samples >30% inhibition (30% CCP) without SCP (serum samples) of 0.
B3 came in with a Mean No of serum samples >30% inhibition (30% CCP) with SCP (serum samples) of 0 and a No of serum samples >30% inhibition (30% CCP) without SCP (serum samples) of 0.
In turn, B4 came in with a Mean No of serum samples >30% inhibition (30% CCP) with SCP (serum samples) of 3 and a No of serum samples >30% inhibition (30% CCP) without SCP (serum samples) of 3.
As for B5, the Mean No of serum samples >30% inhibition (30% CCP) with SCP (serum samples) was 0 and the No of serum samples >30% inhibition (30% CCP) without SCP (serum samples) turned out to be 0.
In turn, B6 showed a Mean No of serum samples >30% inhibition (30% CCP) with SCP (serum samples) of 1 and a No of serum samples >30% inhibition (30% CCP) without SCP (serum samples) of 4.
For B7 the same measures were 0 and 0.
In turn, B8 displayed a Mean No of serum samples >30% inhibition (30% CCP) with SCP (serum samples) of 1 and a No of serum samples >30% inhibition (30% CCP) without SCP (serum samples) of 2.
For B9 the same measures were 1 and 2.
The molecule B10 registered a Mean No of serum samples >30% inhibition (30% CCP) with SCP (serum samples) of 0 and a No of serum samples >30% inhibition (30% CCP) without SCP (serum samples) of 0.
B11 displayed a Mean No of serum samples >30% inhibition (30% CCP) with SCP (serum samples) of 0 and a No of serum samples >30% inhibition (30% CCP) without SCP (serum samples) of 0.
